Measurements as given in US20060051835A1 (published 2006).
Each block holds one binder with its values, some of them ahead of it.

Biological target: T1, FLAG-tagged Parkin (Wild type) (human, UniProt O60260 1-465)
T1 construct: whole, on cells; Plasmid described in Imai et al. 2000; also called FLAG-Parkin; the full-length Parkin; not shown: FLAG tag
Experiment: co-immunoprecipitation from 293T cells (FLAG-IP, anti-Myc Western blot)
From the text: We have previously reported that the expression of Parkin is increased due to the stress induced by misfolded proteins, so as to have an effect of suppressing cell death resulting from the stress induced by misfolded proteins (Imai, Y. et al. (2000) J Biol Chem 275, 35661-35664). Against endoplasmic reticulum stress, a series of unfolded protein responses (UPR) including endoplasmic reticulum (ER)-associated degradation (ERAD), which regulate gene expression, are induced (Travers, K. J. et al., (2000) Cell 101, 249-258). ERAD degrades misfolded membrane proteins or secretory proteins with the degradation system within the cytoplasm (Plemper, R. K. et al., (1999) Trends Biochem Sci 24, 266-270). ERAD substrate was transported back through the membrane of the endoplasmic reticulum to the cytoplasm, in which it is ubiquitinated and degraded by the action of UBC6, UBC7, proteasome complex and the like (Biederer, T. et al., (1997) Science 278, 1806-1809; Bordallo, J. et al., (1998) Mol Biol Cell 9, 209-222; Gilon, T. et al., (2000) Mol Cell Biol 20, 7214-7219; Wilhovsky, S. et al., (2000) Mol Biol Cell 11, 1697-1708). […] Immunoprecipitates (FLAG-IP) immunoprecipitated with anti-FLAG monoclonal antibodies and soluble total cell extract (Total lysate) were analyzed by Western blotting (WB) using anti-FLAG or anti-Myc antibodies.

T1 sequence (O60260 whole entry): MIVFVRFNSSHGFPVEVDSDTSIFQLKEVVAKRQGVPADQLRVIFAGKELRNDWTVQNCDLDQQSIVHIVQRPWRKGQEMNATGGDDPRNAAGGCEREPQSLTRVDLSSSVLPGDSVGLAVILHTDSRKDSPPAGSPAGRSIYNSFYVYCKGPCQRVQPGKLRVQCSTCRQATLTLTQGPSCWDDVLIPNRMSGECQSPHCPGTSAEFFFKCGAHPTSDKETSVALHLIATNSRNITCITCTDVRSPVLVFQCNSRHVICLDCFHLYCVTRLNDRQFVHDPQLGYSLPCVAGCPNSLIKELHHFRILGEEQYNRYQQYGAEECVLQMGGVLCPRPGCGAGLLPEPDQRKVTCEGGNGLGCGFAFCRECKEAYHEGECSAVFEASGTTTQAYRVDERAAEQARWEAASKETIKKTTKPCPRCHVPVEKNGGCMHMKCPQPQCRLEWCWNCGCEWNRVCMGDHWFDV

binding result: no binding
B1: Myc-E2-25K (enzyme, human, UniProt P61086 2-200, looked up)
chain: ANIAVQRIKREFKEVLKSEETSKNQIKVDLVDENFTELRGEIAGPPDTPYEGGRYQLEIKIPETYPFNPPKVRFITKIWHPNISSVTGAICLDILKDQWAAAMTLRTVLLSLQALLAAAEPDDPQDAVVANQYKQNPEMFKQTARLWAHVYAGAPVSSPEYTKKIENLCAMGFDRNAVIVALSSKSWDVETATELLLSN
notes: whole, on cells; not shown: Myc tag

binding result: no binding
B2: Myc-UBCH6 (enzyme, UniProt P51965 2-193, looked up)
chain: SDDDSRASTSSSSSSSSNQQTEKETNTPKKKESKVSMSKNSKLLSTSAKRIQKELADITLDPPPNCSAGPKGDNIYEWRSTILGPPGSVYEGGVFFLDITFTPEYPFKPPKVTFRTRIYHCNINSQGVICLDILKDNWSPALTISKVLLSICSLLTDCNPADPLVGSIATQYMTNRAEHDRMARQWTKRYAT
notes: as for B1
